In patent US7807881B2, “Methods to confer herbicide resistance” (Athenix Corp., priority 2003, dated 2010):

Assays:
E. coli = experiment: Growth of E. coli clones in M9 minimal media containing glyphosate (OD600); assay type: cell-based; settings: 37° C., 28 hours after inoculation, triplicate
Procedure: Starter cultures of E. coli containing GDC-1 (full), GDC-2, or vector alone were grown overnight in LB media, diluted 1:1000 into 3 ml M9 minimal media containing 0, 2, 5, 10, 20 and 30 mM glyphosate and grown at 37° C. Each strain was grown in triplicate at each concentration. OD600 was measured at 0, 7, 24, and 28 hours after inoculation.

E. coli ΔaroA = experiment: Genetic complementation of aroA (EPSP synthase) deletion mutant; assay type: cell-based; settings: ΔaroA plated on LB, M63, and M63 with phenylalanine, tryptophan, tyrosine
Description: The E. coli aroA gene codes for EPSP synthase, the target enzyme for glyphosate. […] However, genes encoding EPSPS activity can restore ability to grow […] upon aroA mutant E. coli strains. Thus, a test for genetic complementation of an aroA mutant is a highly sensitive method to test if a gene is capable of functioning as an EPSPS in E. coli. Such tests for gene function by genetic complementation are known in the art.
A deletion of the aroA gene was created in E. coli XL-1 MRF′ (Stratagene) by PCR/recombination methods known in the art and outlined by Datsenko and Wanner, (2000) Proc. Natl. Acad. Sci. USA 97:6640-6645. This system is based on the Red system that allows for chromosomal disruptions of targeted sequences. A large portion (1067 nt of the 1283 nt) of the aroA coding region was disrupted by the engineered deletion.
The ability of an EPSPS to complement the mutant phenotype of ΔaroA was confirmed. Clone pAX482, an E. coli expression vector containing the wild-type E. coli aroA gene, was transformed into ΔaroA, and transformed cells were selected. These cells (containing a functional aroA gene residing on a plasmid) were then plated on LB media, M63, and M63 with amino acid supplements. […]

[1] = In vitro modification of C14 labeled glyphosate, products analysed by HPLC; assay type: biochemical; settings: 100 ng protein, 2 mM glyphosate, Na-Citrate pH 6.0, 1 mM TPP, 2 mM MgCl2, 60 minutes
Procedure: The ability of GDC-1 to modify glyphosate in vitro was tested by incubating GDC-1 with a mixture of radiolabeled and non-labeled glyphosate, and analyzing the reaction products by HPLC.
100 ng of GDC-1 purified protein was incubated with 20,000 cpm of C^14 labeled glyphosate (NaOOCCH2NH^14CH2PO3H2; Sigma catalog #G7014), mixed with unlabelled glyphosate to a final concentration of 2 mM in a reaction buffer of 200 mM Na-Citrate, pH 6.0, 1 mM TPP, 2 mM MgCl2. Reaction was allowed to proceed 60 minutes, then 5 μl was applied to HPLC column (Dionex AminoPac PA10 analytical (and guard) column, anion exchange resin; Dionex Corporation). The column was equilibrated with 150 mM sodium hydroxide. Fractions were eluted with a sodium acetate gradient of 150-300 mM sodium acetate. Single drop (40 uL) fractions were collected, and the radioactivity present in each fraction determined using a 96-well scintillation counter. […] Control experiments lacking purified GDC-1 show no peak at this elution time.

[2] = Standard pyruvate decarboxylase assay, coupled with alcohol dehydrogenase (absorbance at 340 nm); assay type: biochemical; settings: 100 ng of GDC-1 protein; decrease in absorbance at 340 nm
Procedure: 100 ng of GDC-1 protein was tested for activity in a standard pyruvate decarboxylase assay (Gounaris et al. (1971) J. of Biol. Chem. 246:1302-1309). This assay is a coupled reaction where in the first step the pyruvate decarboxylase (PDC) converts pyruvate to acetaldehyde and CO2. The acetaldehyde produced in this reaction is a substrate for alcohol dehydrogenase, which converts acetaldehyde and β-NADH to ethanol and β-NAD. Thus, PDC activity is detected by virtue of utilization of β-NADH as decrease in absorbance at 340 nm in a spectrophotometer. GDC-1 as well as a control enzyme (pyruvate decarboxylase, Sigma) were tested in this assay.

[3] = Acetolactate synthase activity (acetoin detection, absorbance 525 nm); assay type: biochemical; settings: 50 mM pyruvate, pH 7.0, 2 hours at 37° C.
Procedure: Acetolactate synthases are decarboxylating enzymes that condense two pyruvate molecules to form acetolactate with the release of a CO2 moiety from one of the pyruvate substrates. In the detection of the enzymatic reaction described by Pang and Duggleby (Pang and Duggleby (1999) Biochemistry 18:5222-5231), the product acetolactate is converted to acetoin by incubation with 1% H2SO4 for 15 minutes at 60° C. followed by neutralization with KOH. The acetoin is then detected as described by Westerfeld (Westerfeld (1945) J. Biol. Chem. 161:495-502), using 0.15% creatine and 1.5% alpha-naphthol (dissolved in 2.5 N NaOH). The red colored reaction product is quantified by absorbance at 525 nm.
Samples containing either 5 μg or 10 μg of GDC-2 were incubated in 50 mM pyruvate, 1 mM […] pyrophosphate, 10 mM MgCl2, 0.01 mM Flavin adenine dinucleotide (FAD), 100 mM potassium phosphate buffer pH 7.0 (total reaction volume of 50 μl) for 2 hours at 37° C. The reaction was stopped by the addition of 1 μl of 50% sulfuric acid (H2SO4) and incubated at 60° C. for 15 minutes. The reaction was neutralized by the addition of 30 μl of 1 N KOH followed by the addition of 10 μl of 1.5% creatine and 10 μl of 15% alpha-napthol dissolved in 2.5 N NaOH. The red colored reaction product was quantified by absorbance at 525 nm.

Molecule	OD600 Mean (E. coli; 0 mM glyphosate)	OD600 Mean (E. coli; 2 mM glyphosate)	OD600 Mean (E. coli; 5 mM glyphosate)	OD600 Mean (E. coli; 10 mM glyphosate)	OD600 Mean (E. coli; 20 mM glyphosate)	Complementation of the aroA mutation (growth of ΔaroA on M63 minimal media) (E. coli ΔaroA)	Ability to modify glyphosate in vitro [1]	Pyruvate decarboxylase activity [2]	Absorbance 525 nm (acetolactate synthase activity) ([3]; 5 μg GDC-2)	Absorbance 525 nm (acetolactate synthase activity) ([3]; 10 μg GDC-2)
GDC-1: Glyphosate resistance-conferring decarboxylase protein (SEQ ID NO:22) with TPP-binding domains, homologous to pyruvate decarboxylase (protein, Fungal isolate from soil sample) MASINIRVQNLEQPMDVAEYLFRRLHEIGIRSIHGLPGDYNPLALDYLPSCGLRWVGSVNELNAAYAADGYARVKQMGALITTFGVGELSAINGVAGAFSEHVPVVHIVGCPSTASQRNGMLLHHTLGNGDFNIFANMSAQISCEVAKLTNPAEIATQIDHALRVCFIRSRPVYIMLPTDMVQAKVEGARLKEPIDLSEPPNDPEKEAYVVDVVLKYLRAAKNPVILVDACAIRHRVLDEVHDLIEKTNLPVFVTPMGKGAVNEEHPTYGGVYAGDGSHPPQVKDMVESSDLILTIGALKSDFNTAGFSYRTSQLNTIDLHSDHCIVKYSTYPGVQMRGVLRQVIKQLDASEINAQPAPVVENEVAKNRDNSPVITQAFFWPRVGEFLKKNDIVITETGTANFGIWDTKFPSGVTALSQVLWGSIGWSVGACQGAVLAAADDNSDRRTILFVGDGSFQLTAQELSTMIRLKLKPIIFVICNDGFTIERFIHGMEAEYNDIANWDFKALVDVFGGSKTAKKFAVKTKDELDSLLTDPTFNAAECLQFVELYMPKEDAPRALIMTAEASARNNAKTE	0.049	0.056	0.055	0.057	0.058	neither GDC-1 nor GDC-2 are capable of complementing the aroA mutation	converts a portion of the labeled glyphosate to a product	showed activity as a pyruvate decarboxylase	–	–
GDC-2: Glyphosate resistance-conferring decarboxylase protein (SEQ ID NO:15) with TPP-binding domains, homologous to acetolactate synthase (protein, Fungal isolate from soil sample) MMLRSRQASKALRALGQARHFTSTTQPAAVQAPRKVASGQRNQATAATATSAAPNVRATPSPAFNAEEQQQQKHSHVQPLVNPQKSDMDESFIGKTGGEIFHEMMLRQGVKHIFGYPGGAILPVFDAIYNSKHFDFILPRHEQGAGHMAEGYARASGKPGVVLVTSGPGATNVVTPMQDALSDGTPLVVFCGQVPTSAIGSDAFQEADVVGISRACTKWNVMVKNVAELPRRINEAFEIATSGRPGPVLVDLPKDVTAGILRRAIPTETALPALPSAASRAAMESSRKHLEHTIKRVADLVNKAKQPVIYAGQGIIQSEGGPELLKELADKASIPVTTTLQGLGGFDELDEKSLHMLGMHGSAYANMAMQEADLIIALGARFDDRVTLNVAKFAPGARAAAAEKRGGIVHFEVMPKNINKVVQATEAVEGNVGSNLKLLLPEVQAKTMDDRKEWFGKINEWKKKWPLSHYERAERHGLIKPQTLIEELSKLTADRKDKTYIATGVGQHQMWTAQHFRWRHPRSMITSGGLGTMGFGLPAAIGAKVAQPDALVFDIDGDASFGMTLTELATAAQFNIGVKVIVLNNEEQGMVTQWQNLFYEDRYAHTHQVNPDFMKLAESMRVQGRRCVDPEDVVDSLKWLINTDGPALLEVVTDKKVPVLPMVPAGSALHEFLVFDGEKDKKRRELMRERTSGLHG	0.050	0.054	0.056	0.056	0.058	neither GDC-1 nor GDC-2 are capable of complementing the aroA mutation	–	–	1.99	3.13
